Assay results reported in US20260022175A1 (Chugai, published 2026).
Residue numbers refer to the chain shown, from its start.

B1: 04H1389-G1m/04L1615-k0MT (antibody, human IgG1, kappa)
heavy: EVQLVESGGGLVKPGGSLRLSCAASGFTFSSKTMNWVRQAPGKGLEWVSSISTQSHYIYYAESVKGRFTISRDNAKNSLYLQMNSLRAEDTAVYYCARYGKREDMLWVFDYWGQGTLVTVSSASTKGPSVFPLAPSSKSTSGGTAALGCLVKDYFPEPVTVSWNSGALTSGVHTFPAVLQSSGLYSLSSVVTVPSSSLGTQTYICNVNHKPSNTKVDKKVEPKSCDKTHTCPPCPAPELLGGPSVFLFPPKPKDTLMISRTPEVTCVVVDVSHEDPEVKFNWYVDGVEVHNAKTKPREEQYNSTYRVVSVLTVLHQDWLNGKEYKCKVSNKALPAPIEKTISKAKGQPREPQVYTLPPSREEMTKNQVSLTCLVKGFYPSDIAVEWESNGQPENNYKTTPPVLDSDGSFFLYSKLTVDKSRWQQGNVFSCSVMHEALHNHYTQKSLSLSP
light: DIVMTQSPLSLPVTPGEPASISCQGPSTGVGDYNYVHWYQQKPGQAPRLLIYFTSKKPSGVPDRFSGSGSGTDFTLKISRVEAEDVGVYYCQTYAAPLGPMFGQGTKLEIKRTVAAPSVFIFPPSDEQLKSGTASVVCLLNNFYPREAKVQWKVDNALQSGNSQESVTEQDSKDSTYSLSSTLTLSKADYEKHKVYACEVTHQGLSSPVTKSFNRGEC
B2: H240-Kn462/L73-k0//H240-Hl441/L73-k0 (antibody)
heavy 1: QDQLVQSGAEVKKPGASVKVSCKASGFNIKDTYIQWVRQAPGQGLEWMGRIDPLRKQTKYREKFEGRVTITADTSTNTAYMELSSLRSEDTAVYYCVRSGREFDYWGQGTLVTVSSASTKGPSVFPLAPSSKSTSGGTAALGCLVKDYFPEPVTVSWNSGALTSGVHTFPAVLQSSGLYSLSSVVTVPSSSLGTQTYICNVNHKPSNTKVDKKVEPKSCDKTHTCPPCPAPEFQWGPMVFLFPPKPKDVLMISRTPEVTCVVVDVSDEEPEVKFNWYVDGVEVHNAKTKPREEQYNATYRVVSVLPVLHQDWLNGKEYKCKVSNDALPAPIEKTISKAKGQPREPQVCTLPPSRDELTKNQVSLWCLVKGFYPSDIAVEWESNGQPENNYKTTPPVLDSDGSFFLYSKLTVDKSRWQQGNVFSCSVMHEALHNHYTQKSLSLSP
heavy 2: QDQLVQSGAEVKKPGASVKVSCKASGFNIKDTYIQWVRQAPGQGLEWMGRIDPLRKQTKYREKFEGRVTITADTSTNTAYMELSSLRSEDTAVYYCVRSGREFDYWGQGTLVTVSSASTKGPSVFPLAPSSKSTSGGTAALGCLVKDYFPEPVTVSWNSGALTSGVHTFPAVLQSSGLYSLSSVVTVPSSSLGTQTYICNVNHKPSNTKVDKKVEPKSCDKTHTCPPCPAPELLAGPSVFLFPPKPKDVLMISRTPEVTCVVVDVSHEEPEVKFNWYVDGVEVHNAKTKPREEQYNATYRVVSVLPVLHQDWLNGKEYKCKVSNDALPAPIEETISKAKGQPREPQVYTLPPSRCELTKNQVSLSCAVKGFYPSDIAVEWESNGQPENNYKTTPPVLDSDGSFFLVSKLTVDKSRWQQGNVFSCSVMHEALHNHYTQKSLSLSP
light: DIQMTQSPSSLSASVGDRVTITCRASQDIHKYIAWYQQKPGQAPRLLIQYTSTLQPGVPSRFSGSGSGTDYTFTISSLQPEDIATYYCLQYEQLRTFGGGTKVEIKRTVAAPSVFIFPPSDEQLKSGTASVVCLLNNFYPREAKVQWKVDNALQSGNSQESVTEQDSKDSTYSLSSTLTLSKADYEKHKVYACEVTHQGLSSPVTKSFNRGEC
notes: also called EGL-ART5; ART5; copies: 1 + 1 + 2
B3: H240-Kn496/L73-k0//H240-Hl516/L73-k0 (antibody)
heavy 1: B2 heavy 1 with D325K
heavy 2: B2 heavy 2 with A235G
light: B2 light
notes: also called EGL-ART11; ART11; copies: 1 + 1 + 2
B4: H240-Kn494/L73-k0//H240-Hl514/L73-k0 (antibody)
heavy 1: B2 heavy 1 with D325K, I331E
heavy 2: B2 heavy 2 with A235G, I331E
light: B2 light
notes: also called EGL-ART10; ART10; copies: 1 + 1 + 2
B5: H240-Kn461/L73-k0//H240-Hl443/L73-k0 (antibody)
heavy 1: B2 heavy 1 with I331E
heavy 2: B2 heavy 2 with I331E
light: B2 light
notes: also called EGL-ART8; ART8; copies: 1 + 1 + 2
B6: H240-Kn443/L73-k0//H240-Hl408/L73-k0 (antibody)
heavy 1: B2 heavy 1 with V249T, P306T
heavy 2: B2 heavy 2 with V249T, P306T
light: B2 light
notes: also called EGL-ART3; ART3; copies: 1 + 1 + 2
B7: 04H1654-G1m/04L1612-lam1 (antibody, human IgG1, lambda)
heavy: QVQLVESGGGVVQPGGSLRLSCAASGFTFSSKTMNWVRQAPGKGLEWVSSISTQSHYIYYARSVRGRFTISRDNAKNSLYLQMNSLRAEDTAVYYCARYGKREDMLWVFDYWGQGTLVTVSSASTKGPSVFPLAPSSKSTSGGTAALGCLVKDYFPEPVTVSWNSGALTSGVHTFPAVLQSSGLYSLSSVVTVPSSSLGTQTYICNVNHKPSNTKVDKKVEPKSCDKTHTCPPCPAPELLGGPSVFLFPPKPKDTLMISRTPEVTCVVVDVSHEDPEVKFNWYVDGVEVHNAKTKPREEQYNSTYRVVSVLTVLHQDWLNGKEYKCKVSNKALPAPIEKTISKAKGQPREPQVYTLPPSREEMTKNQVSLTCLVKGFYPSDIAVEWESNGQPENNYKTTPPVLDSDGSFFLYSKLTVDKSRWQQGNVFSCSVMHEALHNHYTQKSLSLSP
light: QSALTQPPSASGSPGQSVTISCEGPSTGVGDYTYVHWYQQHPGKAPKLMIYFTSKKPSGVPDRFSGSKSGNTASLTVSGLQAEDEADYYCQTYAAPLGPMFGGGTKLTVLGQPKAAPSVTLFPPSSEELQANKATLVCLISDFYPGAVTVAWKADSSPVKAGVETTTPSKQSNNKYAASSYLSLTPEQWKSHRSYSCQVTHEGSTVEKTVAPTECS
B8: 04H1656-G1m/04L1610-lam1 (antibody, human IgG1, lambda)
heavy: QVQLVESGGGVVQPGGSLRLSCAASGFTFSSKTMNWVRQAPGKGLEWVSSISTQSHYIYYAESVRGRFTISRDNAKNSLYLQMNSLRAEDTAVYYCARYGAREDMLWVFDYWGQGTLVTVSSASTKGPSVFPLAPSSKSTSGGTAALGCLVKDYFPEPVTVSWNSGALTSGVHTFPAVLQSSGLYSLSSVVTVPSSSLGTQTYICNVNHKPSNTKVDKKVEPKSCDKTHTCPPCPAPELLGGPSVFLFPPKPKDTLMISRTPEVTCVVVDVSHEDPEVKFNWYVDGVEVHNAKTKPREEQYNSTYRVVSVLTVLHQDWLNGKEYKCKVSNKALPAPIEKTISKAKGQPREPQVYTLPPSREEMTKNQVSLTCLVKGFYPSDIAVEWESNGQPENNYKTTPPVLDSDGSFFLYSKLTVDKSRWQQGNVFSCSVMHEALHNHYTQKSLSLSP
light: B7 light with T33N, Y34W
B9: 04H1207-G1m/04L1086-lam1 (antibody, human IgG1, lambda, V domains shown)
VH: EVQLVESGGGLVKPGGSLRLSCAASGFTFSSKTMNWVRQAPGKGLEWVSSISTRSGYIYYAESVKGRFTISRDNAKNSLYLQMNSLRAEDTAVYYCARYGKREDMLWVFDYWGQGTLVTVSS
VL: QSALTQPPSASGSPGQTVTISCDGPSTGVGDYNYVHWYQQHPGKAPKLMIYFTSKKPSGVPDRFSGSKSGNTASLTVSGLQAEDEADYFCQTYAAPLGPMFGGGTKLTVLG
B10: 04H1208-G1m/04L1086-lam1 (antibody, human IgG1, lambda, V domains shown)
VH: B9 VH with E62R
VL: B9 VL

Legend:
[1] = target: T1, cynomolgus monkey CTLA4 (CyCTLA4-His-BAP) (cynomolgus monkey); experiment: SPR Biacore T200, 37C, antibody captured, ATP 1 uM
[2] = target: T2, human CTLA4 (human); experiment: SPR Biacore T200, 37C, antibody captured, ATP 1 uM
T2 construct: also called hCTLA4; hCTLA4-His-BAP

[3] = target: T3, mouse CTLA4 extracellular region linked with a His-tag (mCTLA4-His) (mouse, UniProt P09793 36-161); experiment: SPR Biacore T200, 37C, antibody captured, ATP 1 uM
[4] = target: T2, human CTLA4; experiment: SPR Biacore T200, 37C, antibody captured, ATP 10 uM
[5] = target: T2, human CTLA4; experiment: SPR Biacore T200, 37C, antibody captured, ATP 1 uM; remark: listed apart in the source
[6] = target: T2, human CTLA4; experiment: SPR Biacore T200, 37C, antibody captured, ATP 10 uM; remark: listed apart in the source
[7] = target: T2, human CTLA4; experiment: SPR Biacore T200, 37C, antibody captured, no ATP, steady state model
[8] = target: T2, human CTLA4; experiment: SPR Biacore T200, 37C, antibody captured, AMP 10 uM
[9] = target: T1, cynomolgus monkey CTLA4 …; experiment: SPR Biacore T200, 37C, antibody captured, ATP 10 uM
[10] = target: T2, human CTLA4; experiment: as above; remark: listed apart in the source
[11] = target: T3, mouse CTLA4 extracellular region linked …; experiment: as above
[12] = target: T2, human CTLA4; experiment: SPR Biacore T200, 37C, antibody captured, ADP 10 uM;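 note: antibodies held on a Protein G CM3 chip, human CTLA4 as analyte in ACES pH 7.4 buffer, rates from a global 1:1 Langmuir fit, Kd from rates or steady state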
[13] = target: T1, cynomolgus monkey CTLA4 …; experiment: SPR Biacore T200, 37C, antibody captured, ATP 100 uM
[14] = target: T2, human CTLA4; experiment: as above
[15] = target: T3, mouse CTLA4 extracellular region linked …; experiment: as above
[16] = target: T4, human C1q protein (Calbiochem) (human, UniProt P02745 23-245; P02746 28-253; P02747 29-245); experiment: ELISA, antibody on the plate, hC1q 3 µg/mL
T4 construct: bought; also called hC1q

[17] = target: T5, hCTLA4-His-BAP (human CTLA4 extracellular region with C-terminal His-tag and BAP-tag) (human, biotin on the BAP-tag); experiment: SPR 37C, hCTLA4 1000 nM, no ATP; no ATP; binding amount at 1000 nM hCTLA4
T5 construct: also called hCTLA4-His-Biotin

[18] = target: T5, hCTLA4-His-BAP (human CTLA4 …); experiment: SPR 37C, ATP 10 µM; ATP 10 µM
[19] = target: T5, hCTLA4-His-BAP (human CTLA4 …); experiment: SPR 37C, hCTLA4 1000 nM, ATP 1 µM; ATP 1 µM; binding amount at 1000 nM hCTLA4
[20] = target: T5, hCTLA4-His-BAP (human CTLA4 …); experiment: SPR 37C, hCTLA4 1000 nM, ATP 10 µM; ATP 10 µM; binding amount at 1000 nM hCTLA4
[21] = target: T5, hCTLA4-His-BAP (human CTLA4 …); experiment: SPR 37C, hCTLA4 1000 nM, ATP 100 µM; ATP 100 µM; binding amount at 1000 nM hCTLA4
[22] = target: T5, hCTLA4-His-BAP (human CTLA4 …); experiment: SPR 37C, ATP 100 µM; ATP 100 µM

T2 sequence (chain, as listed by the source limits assumed): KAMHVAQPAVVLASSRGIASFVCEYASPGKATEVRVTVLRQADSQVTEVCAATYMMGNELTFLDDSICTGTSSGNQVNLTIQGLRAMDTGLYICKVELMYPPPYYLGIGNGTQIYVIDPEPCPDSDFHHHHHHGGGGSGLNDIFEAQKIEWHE
T4 sequence (P02745 23-245 limits assumed, chain 1 of 3): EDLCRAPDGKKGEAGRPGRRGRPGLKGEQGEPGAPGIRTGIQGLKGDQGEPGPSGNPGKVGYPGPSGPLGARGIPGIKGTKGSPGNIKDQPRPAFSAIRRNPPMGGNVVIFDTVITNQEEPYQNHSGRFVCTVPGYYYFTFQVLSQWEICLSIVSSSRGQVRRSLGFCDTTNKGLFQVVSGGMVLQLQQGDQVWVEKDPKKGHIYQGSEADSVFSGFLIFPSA
T4 sequence (P02746 28-253 limits assumed, chain 2 of 3): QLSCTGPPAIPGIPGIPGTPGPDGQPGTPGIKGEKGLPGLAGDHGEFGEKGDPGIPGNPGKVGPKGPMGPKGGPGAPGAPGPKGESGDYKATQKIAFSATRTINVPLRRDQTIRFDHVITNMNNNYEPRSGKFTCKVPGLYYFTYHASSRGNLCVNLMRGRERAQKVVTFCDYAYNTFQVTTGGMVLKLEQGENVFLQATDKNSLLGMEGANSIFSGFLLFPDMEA
T4 sequence (P02747 29-245 limits assumed, chain 3 of 3): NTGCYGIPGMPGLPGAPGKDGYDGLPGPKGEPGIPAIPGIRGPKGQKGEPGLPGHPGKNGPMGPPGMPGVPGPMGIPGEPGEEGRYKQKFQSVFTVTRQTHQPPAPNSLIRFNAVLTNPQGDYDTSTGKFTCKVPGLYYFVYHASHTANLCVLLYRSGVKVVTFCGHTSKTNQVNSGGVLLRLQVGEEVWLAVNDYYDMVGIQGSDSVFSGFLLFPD
T1 sequence (chain, as listed by the source limits assumed): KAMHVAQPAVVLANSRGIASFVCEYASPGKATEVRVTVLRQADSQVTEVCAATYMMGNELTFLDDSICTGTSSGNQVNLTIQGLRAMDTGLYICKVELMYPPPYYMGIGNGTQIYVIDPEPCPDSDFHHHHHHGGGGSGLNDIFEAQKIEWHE

Binder	Kd [1] [nM]	Kd [2] [nM]	Kd [3] [nM]	Kd [4] [nM]	koff [4] [s⁻¹]	kon [4] [M⁻¹ s⁻¹]	Kd [5] [nM]	Kd [6] [nM]	Kd [7] [nM]	Kd [8] [nM]	koff [8] [s⁻¹]	kon [8] [M⁻¹ s⁻¹]	Kd [9] [nM]	Kd [10] [nM]	Kd [11] [nM]	Kd [12] [nM]	koff [12] [s⁻¹]	kon [12] [M⁻¹ s⁻¹]	Kd [13] [nM]	binding result [16]	also measured
B1	110	58	160	11	0.0015	130000	72	15	2000	55	0.0097	170000	21	12	26	17	0.003	180000	9.3		Kd [14]: 5 nM; Kd [15]: 10 nM
B2																				binds	
B3																				binds	
B4																				binds	
B5																				binds	
B6																				binds	
B7	310	170	390	36	0.0027	74000	200	33	4800	170	0.016	94000	54	30	48	56	0.005	89000	21		Kd [14]: 11 nM; Kd [15]: 18 nM
B8	120	79	230	15	0.0019	130000	98	19	2200	82	0.014	170000	26	16	37	25	0.0043	170000	10		Kd [14]: 6.2 nM; Kd [15]: 14 nM
B9																					Binding to Human CTLA4 [17]: 0.013 per unit amount of antibody; Kd [18]: 330 nM; Binding to Human CTLA4 [19]: 0.047 per unit amount of antibody; Binding to Human CTLA4 [20]: 0.137 per unit amount of antibody; Binding to Human CTLA4 [21]: 0.196 per unit amount of antibody; Kd [22]: 59 nM
B10																					Binding to Human CTLA4 [17]: 0.005 per unit amount of antibody; Kd [18]: 450 nM; Binding to Human CTLA4 [19]: 0.03 per unit amount of antibody; Binding to Human CTLA4 [20]: 0.108 per unit amount of antibody; Binding to Human CTLA4 [21]: 0.17 per unit amount of antibody; Kd [22]: 74 nM
